# Patent US7122360
# Experiments:
# Crosstide = test system: T1, Crosstide
# T1 sequence: GRPRTSSFAEG
# peptide KKRNRTLSVA = test system: T2, peptide KKRNRTLSVA
# T2 sequence: KKRNRTLSVA
# [1] = test system: T3, KKRNRTLSVA with the arginine at position n-3 changed to lysine
# T3 sequence: KKRNKTLSVA
# [2] = test system: KKRNRTLSVA with the arginine at position n-5 changed to leucine
# CREBtide = test system: T4, CREBtide
# T4 sequence: EILSRRPSYRK
# [3] = test system: GST-MAPKAP-K1a [GST: P08515]
# Sequence of GST-MAPKAP-K1a [GST: P08515] (P08515 whole entry, looked up): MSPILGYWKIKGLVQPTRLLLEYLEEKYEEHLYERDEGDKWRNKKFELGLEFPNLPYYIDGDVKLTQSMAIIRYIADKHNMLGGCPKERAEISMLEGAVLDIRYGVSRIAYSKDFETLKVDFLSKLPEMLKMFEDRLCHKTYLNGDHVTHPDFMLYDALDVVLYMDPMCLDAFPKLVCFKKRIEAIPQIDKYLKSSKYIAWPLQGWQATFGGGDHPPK
# Sequence of GST-MSK1 (chain, as listed by the source): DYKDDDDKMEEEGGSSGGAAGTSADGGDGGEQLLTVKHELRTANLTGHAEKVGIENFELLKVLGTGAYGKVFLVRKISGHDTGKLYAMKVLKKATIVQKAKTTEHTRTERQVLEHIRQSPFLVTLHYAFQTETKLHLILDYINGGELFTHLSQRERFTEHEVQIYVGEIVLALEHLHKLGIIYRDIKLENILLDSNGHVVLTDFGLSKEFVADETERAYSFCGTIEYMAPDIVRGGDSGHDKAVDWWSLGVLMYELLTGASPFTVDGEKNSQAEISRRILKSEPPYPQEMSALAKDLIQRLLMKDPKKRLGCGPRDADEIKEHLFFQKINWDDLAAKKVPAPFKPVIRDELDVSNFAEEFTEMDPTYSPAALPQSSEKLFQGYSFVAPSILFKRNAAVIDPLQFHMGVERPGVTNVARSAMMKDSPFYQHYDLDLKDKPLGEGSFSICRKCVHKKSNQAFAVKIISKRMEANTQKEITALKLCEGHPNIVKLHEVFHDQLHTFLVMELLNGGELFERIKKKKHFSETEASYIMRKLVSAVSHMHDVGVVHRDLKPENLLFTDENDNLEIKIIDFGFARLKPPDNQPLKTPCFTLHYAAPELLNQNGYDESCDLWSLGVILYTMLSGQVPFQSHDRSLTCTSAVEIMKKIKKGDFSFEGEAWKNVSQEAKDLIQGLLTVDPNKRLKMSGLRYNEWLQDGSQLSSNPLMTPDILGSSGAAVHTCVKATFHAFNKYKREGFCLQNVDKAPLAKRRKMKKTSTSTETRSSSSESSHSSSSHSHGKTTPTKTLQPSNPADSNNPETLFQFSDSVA
# Sequence of GST-CREB [GST: P08515] (P08515 whole entry, looked up): as the sequence (P08515 whole entry, looked up) above
substance,measurement,setting,value
GST-MAPKAP-K1a,Km,Crosstide,2 to 3 µM
same,Km,GST-CREB [GST: P08515],the Km was too high to be measured
same,Km and Vmax,peptide KKRNRTLSVA,almost identical Km and Vmax values as for Crosstide
same,Km relative to KKRNRTLSVA,[1],increased the Km about 100-fold
same,Km relative to KKRNRTLSVA,[2],5 fold
same,Km relative to MSK1,CREBtide,Km values that were at least 200-fold higher
GST-MAPKAP-K2,Km,GST-CREB [GST: P08515],the Km was too high to be measured
same,phosphorylation of Ser98 relative to Ser133 of CREB,GST-CREB [GST: P08515],10-fold higher level than Ser133
same,phosphorylation of substrate in vitro,heat shock protein 27,much more active towards heat shock protein 27
activated GST-MAPK2/ERK2,activity towards Crosstide after incubation with MgATP and activated MAPK2/ERK2,[3],enhanced over 100-fold
same,activity towards Crosstide after incubation with MgATP and activated MAPK2/ERK2,GST-MSK1,enhanced over 100-fold
activated GST-SAPK1/JNK1γ,activation in vitro (activity towards Crosstide),[3],did not activate
same,activation in vitro (activity towards Crosstide),GST-MSK1,did not activate
activated GST-SAPK2a/p38a,activation in vitro (activity towards Crosstide),[3],could not
same,activation in vitro (activity towards Crosstide),GST-MSK1,could also be activated similarly
activated GST-SAPK2b/p38β,activation in vitro (activity towards Crosstide),[3],could not
same,activation in vitro (activity towards Crosstide),GST-MSK1,could also be activated similarly
activated GST-SAPK3/p38γ,activation in vitro (activity towards Crosstide),[3],did not activate
same,activation in vitro (activity towards Crosstide),GST-MSK1,did not activate
activated GST-SAPK4/p38δ,activation in vitro (activity towards Crosstide),[3],did not activate
